Source: patent publication US20210380994A1, “LACTOCOCCUS LACTIS EXPRESSION SYSTEM FOR DELIVERING PROTEINS EFFICACIOUS FOR THE TREATMENT OF EPITHELIAL BARRIER FUNCTION DISORDERS” (Second Genome, Inc., priority 2018, published 2021)

How the values were obtained:
[1] = stability by analytical size exclusion chromatography and Ellman's reagent assay (Example 9); type: physicochemical
Method: The stability of SG-11 (SEQ ID NO:9) was evaluated following the incubation at 37° C. for one week and at 4° C. for 3 weeks in Buffer C (100 mM sodium phosphate, pH 7.0, 0.5 M sorbitol). The stability was assessed by monitoring aggregation formation with analytical size exclusion chromatography (SEC) equilibrated with Buffer D (100 mM sodium phosphate, pH 7.0, 10% glycerol). […] The cause of the aggregation was investigated as follows. There are two cysteine residues found in SG-11 at positions 147 and 151 (relative to SEQ ID NO:7). […] As free sulphydryl groups could cause aggregation by forming unpreferable intermolecular disulfide bonds, it was examined whether the presence of reducing agent, such as β-mercaptoethanol, could prevent the aggregation.

[2] = test system: HCT8 enterocyte and HT29-MTX goblet cell lines; assay: Oris Cell Migration assay (epithelial cell wound healing); type: cell-based, human; details: 48 hours; SG-11 1 μg/ml, EGF 30 ng/ml, staurosporine 100 nM; FIG. 2
Description: The 96 well Oris Cell Migration assay containing plugs preventing cell attachment in the center of each well was used according to the manufacturer's instructions (Platypus Technologies. Madison, Wis.).
The migration assay plates were warmed to room temperature prior to use and plugs were removed rom 100% confluence wells prior to cell addition. The HCT8 enterocyte and HT29-MTX goblet cell lines were used at a 9:1 ratio with a total of 5×10^4 total cells added per well (4.5×10^4 HCT8 cells and 0.5×10^4 HT29-MTX cells). Cells were incubated at 37° C.+5% CO2 for 24 hours. Plugs were then removed from all control and sample wells. Control wells included cells treated with the diluent vehicle as the blank, 30 ng/ml epidermal growth factor (EGF) as the positive control, and 100 nM staurosporine as the negative control, all diluted in cRPMI. Sample wells contained SG-11 protein (SEQ ID NO:9) at a concentration of 1 μg/ml diluted in eRPMI. 100% and 0% wells were cultured in cRPMI. […] The green fluorescent viability dye Calcenin AM was added to all wells at a concentration of 0.5 μg/min PBS containing 0.9 mM CaCl2 and 0.5 mM MgCl2, incubated for 30 min at 37° C.+5% CO2, the dye was removed and cells were washed in PBS containing 0.9 mM CaCl2 and 0.5 mM MgCl2, and fluorescence was measured. […] Samples were normalized between 100% and 0% samples and values expressed as a percent growth.

mice treated with DSS = assay: DSS model of colitis with SG-11V5 protein and SG-11V5-expressing L. lactis (Example 22); type: in vivo
Method: Specifically, the mice in this Example 22 were treated with DSS, a chemical known to induce intestinal epithelial damage and thereby reduce intestinal barrier integrity and function. These DSS mice were then administered an L. lactis strain expressing SG-11V5 as described above, or a positive or negative control treatment.
In this study, 3 independent groups of mice (10 mice per group) were used to test the 3 different L. lactis strains: Group 1: L. lactis harboring parent pNZ8124 vector, Group 2: L. lactis harboring inducible SG-11V5 vector (PnisA:otsBA::PnisA:SPusp45:SG-11V5), and Group 3: L. lactis harboring constitutive SG-11V5 vector (PnisA:otsBA::Pusp45:SPusp45:SG-11V5). Each of the strains in Groups 1-3 had been grown until the cultures reached an OD600 of about 0.5, induced with nisin for 2 hours, concentrated to about 10^11 cells/mL in PBS with glycerol, and stored at −80° C. Cells were analyzed by Western blot to confirm protein expression. An additional 4 groups of mice (n=10 per group) were included as controls: Group 4: untreated; Group 5: treated p.o. with vehicle only; Group 6: intraperitoneal (i.p.) administration of Gly2-GLP2 (50 nmoles/kg); and Group 7: i.p. administration of SG-11V5 protein (160 nmoles/kg (4.0 mg/kg).
I.p. administration of Gly2-GLP2 and SG-11V5 was done twice per day, with i.p. administration to the right abdomen in the morning and to the left abdomen in the evening for 6 consecutive days (Day 0-Day 5) and then to the right abdomen on Day 6 prior to euthanasia and tissue recovery. Gly2-GLP2 (CPC Scientific Peptide Company) was prepared by dissolving in PBS(Corning 21-040-CV) with 5 mM NaOH to a concentration of 5 mg/mL Aliquots were stored at −80C prior to use.
Following a 7-day acclimation period, treatments wore initiated in the morning (AM) of Day 0 with i.p. administration of Gly2-GLP2 or purified SG-11V5 protein as a positive control, oral gavage of strain vehicle only (phosphate buffered saline (PBS; Corning 21-040-CV)), or with oral gavage administration of the appropriate L. lactis expression strain.
Fresh drinking water treated with 2.5% DSS was prepared and provided to all the mice on Days 0, 2, and 4 about 6 hours after AM dosing. […] Also, treatments were continued with the L. lactis strains described above once a day (q.d) in the morning with p.o. administration at 10^10 CFU of the strains comprising i) pNZ8124 vector, ii) inducible SG-11V5 vector, or iii) constitutive SG-11V5 vector.
On Day 6, only AM dosing was performed for intraperitoneal (i.p.) injection of protein and oral gavage (p.o) administration of L. lactis strains expressing SG-11V5 protein. Mice were fasted for 4 hours and then orally gavaged with 600 mg/kg 4KDa dextran labeled with fluorescin isothiocyanate (FITC) [4KDa-FITC]. About 50 minutes after the 4KDa-FITC gavage, mice were anesthetic with ketamine (ket)/xylazine (xyl) drug. Mice were injected with 10 ml/kg i.p of 10 mg/ml ketamine and 1 mg/ml xylazine (100 ul per 10 g body weight). One hour after administering 4KDa-FITC and about 10 minutes after ketamine/xylazine anesthesia, mice were euthanized, and blood and tissues were collected to assess barrier function and DSS model readouts. […]
Upon completion of the DSS models above, LBP levels were measured as an inflammation centric readout of barrier function following the protocol detailed above in Examples 7 and 13. […] LBP levels were measured in serum using a commercially available ELISA Kit (Enzo Life Sciences). […]

[3] = SG-11V5 protein 160 nmoles/kg i.p. b.i.d.

B1: SG-11: Roseburia hominis protein comprising SEQ ID NO:3; tested as SEQ ID NO:5, SEQ ID NO:7 or FLAG-tagged SEQ ID NO:9 (protein, listed as Rosburia hominis)
chain: LEGEESVVYVGKKGVIASLDVETLDQSYYDETELKSYVDAEVEDYTAEHGKNAVKVESLKVEDGVAKLKMKYKTPEDYTAFNGIELYQGKVVASLAAGYVYDGEFARVEEGKVVGAATKQDIYSEDDLKVAIIRANTDVKVDGEICYVSCQNVKLTGKDSVSIRDGYYLETGSVTASVDVTGQESVGTEQLSGTEQMEMTGEPVNADDTEQTEAAAGDGSFETDVYTFIVYK
aggregation by analytical SEC ([1]; 4-days incubation at 37° C. in the presence of 2.5% (v/v) β-mercaptoethanol): greatly suppressed | aggregation formation by analytical SEC ([1]; 4° C. for 3 weeks in Buffer C (100 mM sodium phosphate, pH 7.0, 0.5 M sorbitol), vs freshly thawed protein): No noticeable change | aggregation formation by analytical SEC ([1]; 37° C. for one week in Buffer C): clearly showed aggregation peaks | free sulfhydryl groups (Ellman's reagent assay) ([1]; SG-11 (SEQ ID NO:9)): presence of free sulfhydryl groups | percent growth (epithelial cell wound healing) [2]: significant increase in growth

B2: SG-11V5: variant of SEQ ID NO:7 with N53S, N83S, C147V, C151S (protein)
chain: MLEGEESVVYVGKKGVIASLDVETLDQSYYDETELKSYVDAEVEDYTAEHGKSAVKVESLKVEDGVAKLKMKYKTPEDYTAFSGIELYQGKVVASLAAGYVYDGEFARVEEGKVVGAATKQDIYSEDDLKVAIIRANTDVKVDGEIVYVSSQNVKLTGKDSVSIRDGYYLETGSVTASVDVTGQESVGTEQLSGTEQMEMTGEPVNADDTEQTEAAAGDGSFETDVYTFIVYK
modifications: Artificial variant of SG-11 (N53S, N83S, C147V, C151S)
body weight (mice treated with DSS; SG-11V5 160 nmoles/kg i.p. b.i.d., day 6): significant improvement in body weight | colon length (mice treated with DSS; [3]): significant increase in the colon length | colon weight-to-length ratio (mice treated with DSS; [3]): significant decrease in the colon weight-to-length ratio | gross pathology (clinical score 0-5) (mice treated with DSS; SG-11V5 protein 160 nmoles/kg i.p. b.i.d., p<0.0001): significant improvement in gross pathology | 4KDa-FITC dextran translocation across the epithelial barrier (mice treated with DSS; SG-11V5 protein 160 nmoles/kg i.p. b.i.d., vs DSS + vehicle): non-significant increase
